Data on one substance can be found in paper PMC6868385.

The target in this assay is GFP-tagged BLM (Bloom helicase) (human) (UniProt P54132). Kind of assay: single-molecule fluorescence intensity.

With “GFP-tagged BLM (Bloom helicase), P54132 1-1417 (enzyme; other documents disagree on this pair)”, the stoichiometry N (molecules of GFP–BLM per complex) was found to be 3.1.
